Tests used:
Assay type in all cases: cell-based
[1] = system: Jurkat cells; assay: Surface expression of CD40L by FACS in lentivirally transduced Jurkat cells; conditions: for CD40L positive percent of live cells / Geometric Mean of CD40L fluorescent intensity: FACS
Description: 50,000 Jurkat cells were transduced with lentiviruses corresponding to the constructs. OT-001661, OT-001685, OT-001662, or OT-001666 and cultured for 48h. Cells were split and incubated with ligands for 24h before analysis by flow cytometry.
Jurkat cells were treated with one of the following: 1 μM Shield-1, 50 μM TMP, 1 μM Bazedoxifene (BZD) or vehicle control. Surface expression of CD40L was measured using FACS and the results are show in Table 9. All values were normalized to mode.

[2] = system: T cells co-cultured with monocyte derived dendritic cells (mDC); assay: CD40L levels in T cells in mDC co-culture (FACS); conditions: mDC co-culture 2 days
Text: (§1) In order to engage dendritic cells in an immune response, dendritic cells must be converted to a functional state by an antigen-specific CD4+ helper T cell. Activation of the dendritic cells may be followed by the activation of CD8+ T cells by the dendritic cells, a process referred to as dendritic cell licensing. Engagement of the CD40L expressed on the CD4+ cells with the CD40 on the dendritic cells can result in (i) dendritic cell stimulation-measured by expression of co-stimulatory and MHC molecules (ii) proinflammatory cytokine release (e.g. IL12, TNFα and INFγ) (iii) epitope spreading. To measure the effect of CD40L expression that is tuned by the biocircuits of the present disclosure, CD4+ T cells or Jurkat cells expressing any of the CD40L constructs described herein were co-cultured with dendritic cells.
(§2) Dendritic cell function in response to co-culture with T cells expressing CD40L was evaluated in the presence of ligand or corresponding vehicle control. Monocyte derived dendritic cells (mDC) (CD14+) were isolated from fresh blood and cultured for 5 days with IL-4 (7.5 ng/mL) and GM-CSF (20 ng/mL). The mDCs were frozen down after the 5 day culture. T cells were transduced with OT-001662 and expanded for 9 days before being frozen down. mDCs and T cells were thawed and co-cultured 1:10 DC: T cell ratio (i.e. 5×10^4 DCs: 5×10^5 T cells). mDC and T cells were co-cultured for 2 days before cells were collected for flow cytometry and supernatants were collected for cytokine analysis. For evaluation of regulated constructs, ligand (various doses of TMP) was added at the time initiating the co-culture and was kept in the co-culture for 2 days. Cytokines were analyzed by MSD after a single freeze thaw cycle. All cells were cultured in complete RPMI with 10% FBS during the course of the experiment. SR indicates stabilization ratio.

[3] = system: T cells (CD4+ and CD8+); assay: Regulation of CD40L in T cells by different drug responsive domains; conditions: Ligand N/A
[4] = system: HEK-Blue™ CD40 cells; assay: HEK-Blue CD40 SEAP reporter co-culture with transduced Jurkat cells; conditions: ligand 24 h (1 μM Shield-1, 50 μM TMP or 1 μM Bazedoxifene), recombinant soluble CD40L as standard
Description: Jurkat cells transduced with OT-001661, OT-001685, OT-001662, OT-001666, or OT-001667 were co-cultured with HEK-Blue™ CD40 cells (Invivogen, San Diego, Calif.). Cocultures were treated with ligands (1 μM Shield-1, 50 μM TMP, 1 μM Bazedoxifene (BZD) or vehicle control) for 24 hours and the secreted embryonic alkaline phosphatase (SEAP) reporter levels were measured in the media. All vehicle treated samples had background SEAP activity. Recombinant soluble CD40L was used as the standard in the experiments.

[5] = system: Monocyte derived dendritic cells (mDC); assay: Cytokine production in mDC-T cell co-culture (MSD); conditions: mDC-T cell co-culture 2 days
Text: as §1, §2

[6] = system: CD4+ T cells; assay: Ligand dose response, % CD40L positive cells, CD4+ T cells
Description: Ligand dose response curve experiments were performed with increasing doses of ligand using OT-001662 and OT-001666 constructs in both CD4+ as well as CD8+ T cells.
The experiments were conducted using three different volumes of virus for transduction i.e. 0.5, 2 and 10 μL.

[7] = system: T cells; assay: Dose response of TMP, Bazedoxifene or Raloxifene, % CD40L positive T cells; conditions: T cells
Description: T cells were transduced with OT-001662 or OT-001666. On day 4, cells were treated with increasing doses of TMP for T cells expressing OT-001662. Cells expressing OT-001666 were treated either with increasing concentrations of Bazedoxifene or Raloxifene. The data are shown in Table 30 as the percentage of CD40L positive T cells.

[8] = constitutive construct, no DRD, no ligand
[9] = ligand 24 h (1 μM Shield-1 OT-001685, 50 μM TMP OT-001662, 1 μM Bazedoxifene OT-001666)
[10] = vehicle 24 h (Ethanol 0.2% OT-001685, DMSO 0.5% OT-001662, DMSO 0.01% OT-001666)

B1: OT-001661: constitutively expressed full length CD40L construct (protein)
chain: MHMIETYNQTSPRSAATGLPISMKIFMYLLTVFLITQMIGSALFAVYLHRRLDKIEDERNLHEDFVFMKTIQRCNTGERSLSLLNCEEIKSQFEGFVKDIMLNKEETKKENSFEMQKGDQNPQIAAHVISEASSKTTSVLQWAEKGYYTMSNNLVTLENGKQLTVKRQGLYYIYAQVTFCSNREASSQAPFIASLCLKSPGRFERILLRAANTHSSAKPCGQQSIHLGGVFELQPGASVFVNVTDPSQVSHGTGFTSFGLLKL
CD40L positive percent of live cells [1, 8]: 99.4% | Geometric Mean of CD40L fluorescent intensity [1, 8]: 10075 | CD40L expression relative to untransduced cells ([1]; constitutive construct): higher than untransduced cells | % CD40L+ ([2]; CD4+, DMSO): 68.1% | CD40L MFI ([2]; CD4+, DMSO): 579 | % CD40L+ ([2]; CD4+, TMP): 68.3% | CD40L MFI ([2]; CD4+, TMP): 580 | % CD40L+ ([2]; CD8+, DMSO): 62.2% | CD40L MFI ([2]; CD8+, DMSO): 495 | % CD40L+ ([2]; CD8+, TMP): 62.3% | CD40L MFI ([2]; CD8+, TMP): 499 | CD40L positive ([3]; All Cells): 98% | MFI ([3]; All Cells): 20451 | CD40L positive ([3]; CD4+): 98.7% | MFI ([3]; CD4+): 24489 | CD40L positive ([3]; CD8+): 97.8% | MFI ([3]; CD8+): 14352 | Soluble CD40L [4]: 9341.40 pg/mL | Cytokine Production IFNg ([5]; DMSO): 12973 pg/mL | Cytokine Production IL12 ([5]; DMSO): 58.935 pg/mL | Cytokine Production TNFa ([5]; DMSO): 456.3242 pg/mL | Cytokine Production IFNg ([5]; TMP): 10939.9 pg/mL | Cytokine Production IL12 ([5]; TMP): 86.229 pg/mL | Cytokine Production TNFa ([5]; TMP): 440.0804 pg/mL

B2: OT-001666 (Met; ER (305-549 of WT, L384M, N413D, M421G, G521R, Y537S); Histidine; CD40L; stop) (ligand)
chain: MSLALSLTADQMVSALLDAEPPILYSEYDPTRPFSEASMMGLLTNLADRELVHMINWAKRVPGFVDLTLHDQVHLLECAWMEILMIGLVWRSMEHPGKLLFAPNLLLDRDQGKCVEGGVEIFDMLLATSSRFRMMNLQGEEFVCLKSIILLNSGVYTFLSSTLKSLEEKDHIHRVLDKITDTLIHLMAKAGLTLQQQHQRLAQLLLILSHIRHMSNKRMEHLYSMKCKNVVPLSDLLLEMLDAHRLHMIETYNQTSPRSAATGLPISMKIFMYLLTVFLITQMIGSALFAVYLHRRLDKIEDERNLHEDFVFMKTIQRCNTGERSLSLLNCEEIKSQFEGFVKDIMLNKEETKKENSFEMQKGDQNPQIAAHVISEASSKTTSVLQWAEKGYYTMSNNLVTLENGKQLTVKRQGLYYIYAQVTFCSNREASSQAPFIASLCLKSPGRFERILLRAANTHSSAKPCGQQSIHLGGVFELQPGASVFVNVTDPSQVSHGTGFTSFGLLKL
CD40L positive percent of live cells [1, 9]: 38.4% | Geometric Mean of CD40L fluorescent intensity [1, 9]: 421 | CD40L positive percent of live cells [1, 10]: 0.024% | Geometric Mean of CD40L fluorescent intensity [1, 10]: 21.5 | % CD40L positive cells ([6]; 2 μL virus, BZD 0.05 nM): 8.57% | % CD40L positive cells ([6]; 2 μL virus, BZD 0.5 nM): 9.25% | % CD40L positive cells ([6]; 2 μL virus, BZD 5 nM): 11.1% | % CD40L positive cells ([6]; 2 μL virus, BZD 50 nM): 36% | % CD40L positive cells ([6]; 2 μL virus, BZD 500 nM): 71.8% | % CD40L positive cells ([6]; 10 μL virus, BZD 0.05 nM): 4.16% | % CD40L positive cells ([6]; 10 μL virus, BZD 0.5 nM): 4.86% | % CD40L positive cells ([6]; 10 μL virus, BZD 5 nM): 6.42% | % CD40L positive cells ([6]; 10 μL virus, BZD 50 nM): 34% | % CD40L positive cells ([6]; 10 μL virus, BZD 500 nM): 76.5% | Soluble CD40L [4]: 1824.7 pg/mL | % CD40L positive T cells, dose response ([7]; increasing concentrations of Bazedoxifene): dose dependent increase | Raloxifene dependent expression ([7]; increasing concentrations of Raloxifene): observed only at the 1 μM dose

Reference: patent US20220175781A1, “CD40L COMPOSITIONS AND METHODS FOR TUNABLE REGULATION” (Obsidian Therapeutics, Inc., priority 2019, published 2022)
